Experimental data as given in US20040254351A1.

Molecular target: G-CSF receptor
Assay: cell-based or functional assay

G-CSF[C17A] (from UniProt P09919 31-207) (ligand)
EC50/Neupogen (reporter activity in cells expressing the G-CSF receptor) (ratio to Neupogen): 0.66

Wild-type G-CSF (from UniProt P09919 31-207) (ligand)
EC50/Neupogen (reporter activity in cells expressing the G-CSF receptor) (ratio to Neupogen): 0.38
